# Results taken from US20260242478A1 (published 2026).
# Where no end group is shown, it is not given here.
# Assays:
# [1] = molecular target: T1, Anti-PSMA Fab (SEQ ID NOs: 19, 20); assay: phage binding ELISA; biotinylated anti-PSMA Fab on neutravidin plate, PSMA antigen as competitor, anti-M13 HRP detection
# T1 construct: Biotinylated and captured on neutravidin coated plates in the phage ELISA; also called 006 PSMA Fab
# Description: (§1) Clonal phage were harvested as crude supernatants and screened via standard ELISAs. […] Prior to the addition of clonal phage. wells were incubated with blocking buffer and PSMA antigen or blocking buffer alone. Without washing or aspirating, clonal phage supernatants were then added to the wells and incubated for a short time. Wells were then washed followed by detection of bound phage using a horse radish conjugated anti-M13 antibody.
# [2] = molecular target: T1, Anti-PSMA Fab (SEQ ID NOs: 19, 20); assay: phage binding ELISA; biotinylated anti-PSMA Fab on neutravidin plate, clonal phage supernatant, anti-M13 HRP detection
# Description: as §1
# [3] = molecular target: T2, Anti-PSMA Fab (SEQ ID NOs: 19, 20); assay: phage ELISA; biotinylated PSMA Fab on neutravidin plate, clonal phage supernatant, anti-M13-HRP detection;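 also: wells were preincubated with blocking buffer containing PSMA antigen or with blocking buffer only, then phage supernatant was added without washing for a brief incubation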
# T2 construct: also called 006 PSMA Fab
# Description: as §1
# [4] = molecular target: T2, Anti-PSMA Fab (SEQ ID NOs: 19, 20); assay: phage ELISA; biotinylated PSMA Fab on neutravidin plate pre-incubated with PSMA antigen as competitor, anti-M13-HRP detection
# Description: as §1
# [5] = molecular target: T3, Anti-PSMA Fab (SEQ ID NOs: 19, 20); assay: phage binding ELISA; biotinylated PSMA Fab captured on neutravidin plate, bound phage detected with anti-M13-HRP
# T3 construct: In the phage ELISA the Fab was biotinylated and captured on neutravidin coated plates; also called 006 PSMA Fab
# Description: as §1
# [6] = molecular target: T3, Anti-PSMA Fab (SEQ ID NOs: 19, 20); assay: phage binding ELISA on captured PSMA Fab, wells pre-incubated with PSMA antigen as competitor
# Description: as §1
# [7] = molecular target: T4, Anti-PSMA Fab (SEQ ID NOs: 19, 20); assay: phage ELISA; PSMA Fab on plate pre-incubated with PSMA antigen as competitor, anti-M13 HRP
# T4 construct: Biotinylated Fab captured on neutravidin coated plates in the phage ELISA; also called 006 PSMA Fab
# Description: as §1
# [8] = molecular target: T4, Anti-PSMA Fab (SEQ ID NOs: 19, 20); assay: phage ELISA; biotinylated PSMA Fab on neutravidin plate, bound phage detected with anti-M13 HRP
# Description: as §1
Binder,Anti-PSMA Fab signal in the presence of PSMA [1],"Anti-PSMA Fab (SEQ ID NOs: 19, 20) signal [2]","Phage binding ELISA, Anti-PSMA Fab signal in the presence of PSMA [7]","Phage binding ELISA, Anti-PSMA Fab signal [8]",also measured
SENWCIPSWMCQGF [Phage-2103],0.0813,1.73,,,
EMKLCRPAWMCEYM [Phage-2141],,,,,"Phage binding ELISA, Anti-PSMA Fab (SEQ ID NOs: 19, 20) signal [3]: 1.69; Phage binding ELISA, Anti-PSMA Fab signal in the presence of PSMA [4]: 0.0727"
VYKWCTPPWMCTQM [Phage-2136],,,,,"Phage binding ELISA, Anti-PSMA Fab (SEQ ID NOs: 19, 20) signal [3]: 1.7; Phage binding ELISA, Anti-PSMA Fab signal in the presence of PSMA [4]: 0.0779"
IPKLCKPSWMCLFY (Clonal phage of the Peptide-180 library) [Phage-2098],,,,,"Anti-PSMA Fab (SEQ ID NOs: 19, 20) signal [5]: 1.73; Anti-PSMA Fab signal in the presence of PSMA [6]: 0.185"
AEKWCIPPWMCEWV (Clonal phage of the peptide-180 library) [Phage-2121],,,0.105,1.71,
MNTWCKPAWMCEGL [Phage-2113],0.127,1.72,,,
VTAWCIPEWMCVGV (Clonal phage of the peptide-180 library) [Phage-2122],,,0.0929,1.71,
GVNWCIPDWMCVGM [Phage-2104],0.0692,1.73,,,
SAMLCKPQWMCDGF [Phage-2108],0.0821,1.72,,,
ILKACIPDWMCEGS (Clonal phage of the peptide-180 library) [Phage-2124],,,0.0604,1.71,
INMWCIPAWMCQNT (Clonal phage of the Peptide-180 library) [Phage-2100],,,,,"Anti-PSMA Fab (SEQ ID NOs: 19, 20) signal [5]: 1.73; Anti-PSMA Fab signal in the presence of PSMA [6]: 0.128"
EFKWCTPPWMCQWD (Clonal phage of the peptide-180 library) [Phage-2125],,,0.101,1.71,
DANWCKPTWMCAGF [Phage-2132],,,,,"Phage binding ELISA, Anti-PSMA Fab (SEQ ID NOs: 19, 20) signal [3]: 1.7; Phage binding ELISA, Anti-PSMA Fab signal in the presence of PSMA [4]: 0.109"
WENWCTPSWMCSVL [Phage-2116],0.118,1.72,,,
EIKWCRPGWMCKVR (Clonal phage of the peptide-180 library) [Phage-2123],,,0.0583,1.71,
GEIWCIPRWMCESF [Phage-2115],0.0672,1.72,,,
LENWCKPAWMCRGS [Phage-2109],0.0678,1.72,,,
SDKWCIPPWMCEVA (Clonal phage of the peptide-180 library) [Phage-2126],,,0.0724,1.71,
YAKWCIPEWMCAVS (Clonal phage of the peptide-180 library) [Phage-2119],,,0.12,1.72,
LVKWCTPPWMCESQ (Clonal phage of the peptide-180 library) [Phage-2130],,,0.0701,1.71,
VLKWCIPTWMCETQ [Phage-2137],,,,,"Phage binding ELISA, Anti-PSMA Fab (SEQ ID NOs: 19, 20) signal [3]: 1.7; Phage binding ELISA, Anti-PSMA Fab signal in the presence of PSMA [4]: 0.0908"
FEKWCIPPWMCAVH [Phage-2110],0.138,1.72,,,

Binder,Anti-PSMA Fab signal in the presence of PSMA [1],"Anti-PSMA Fab (SEQ ID NOs: 19, 20) signal [2]","Phage binding ELISA, Anti-PSMA Fab signal in the presence of PSMA [7]","Phage binding ELISA, Anti-PSMA Fab signal [8]",also measured
QEKWCIPMWMCESL [Phage-2106],0.0796,1.73,,,
SERWCIPEWMCSMP [Phage-2114],0.0625,1.72,,,
TERWCVPAWMCTLV [Phage-2135],,,,,"Phage binding ELISA, Anti-PSMA Fab (SEQ ID NOs: 19, 20) signal [3]: 1.7; Phage binding ELISA, Anti-PSMA Fab signal in the presence of PSMA [4]: 0.0741"
EAKWCIPAWMCSGV (Clonal phage of the Peptide-180 library) [Phage-2101],,,,,"Anti-PSMA Fab (SEQ ID NOs: 19, 20) signal [5]: 1.73; Anti-PSMA Fab signal in the presence of PSMA [6]: 0.0654"
VHNWCIPSWMCEGL [Phage-2107],0.0717,1.73,,,
EIKWCVPQWMCENQ (Clonal phage of the peptide-180 library) [Phage-2117],,,0.0643,1.72,
EGKWCIPEWMCSAS [Phage-2134],,,,,"Phage binding ELISA, Anti-PSMA Fab (SEQ ID NOs: 19, 20) signal [3]: 1.7; Phage binding ELISA, Anti-PSMA Fab signal in the presence of PSMA [4]: 0.0777"
VVKWCSPPWMCDFL [Phage-2111],0.0713,1.72,,,
EIHLCKPPWMCDWL (Clonal phage of the peptide-180 library) [Phage-2120],,,0.109,1.72,
EHKWCIPSWMCADM [Phage-2140],,,,,"Phage binding ELISA, Anti-PSMA Fab (SEQ ID NOs: 19, 20) signal [3]: 1.69; Phage binding ELISA, Anti-PSMA Fab signal in the presence of PSMA [4]: 0.108"
MERWCIPEWMCATT [Phage-2102],0.0637,1.73,,,
FEMLCTPPWMCVGL [Phage-2133],,,,,"Phage binding ELISA, Anti-PSMA Fab (SEQ ID NOs: 19, 20) signal [3]: 1.7; Phage binding ELISA, Anti-PSMA Fab signal in the presence of PSMA [4]: 0.0639"
"LGNWCIPEWMCYGM (cysteine pairing not given here; also: fused to phage pIII (clonal phage display), Clonal phage of the Peptide-180 library) [Phage-2099]",,,,,"Anti-PSMA Fab (SEQ ID NOs: 19, 20) signal [5]: 1.73; Anti-PSMA Fab signal in the presence of PSMA [6]: 0.078"
WDKWCIPEWMCVTQ (Clonal phage of the peptide-180 library) [Phage-2127],,,0.1,1.71,
LEKWCTPSWMCIGI [Phage-2139],,,,,"Phage binding ELISA, Anti-PSMA Fab (SEQ ID NOs: 19, 20) signal [3]: 1.7; Phage binding ELISA, Anti-PSMA Fab signal in the presence of PSMA [4]: 0.0773"
DGLLCRPLWMCQFL (Clonal phage of the peptide-180 library) [Phage-2128],,,0.0771,1.71,
LMKWCIPDWMCSHV (Clonal phage of the peptide-180 library) [Phage-2131],,,0.0763,1.71,
EMIWCRPAWMCEGI (Clonal phage of the peptide-180 library) [Phage-2118],,,0.0702,1.72,
VQKWCIPEWMCAVA [Phage-2138],,,,,"Phage binding ELISA, Anti-PSMA Fab (SEQ ID NOs: 19, 20) signal [3]: 1.7; Phage binding ELISA, Anti-PSMA Fab signal in the presence of PSMA [4]: 0.0584"
VDPLCRPAWMCFGM [Phage-2112],0.0801,1.72,,,
EWKWCTPSWMCEDA [Phage-2105],0.0652,1.73,,,
PLPWCIPVWMCSMI (Clonal phage of the peptide-180 library) [Phage-2129],,,0.161,1.71,
